Measurements taken from paper PMC12551957, “Human monoclonal antibodies to HPV16 show evidence for common developmental pathways and public epitopes” (PLOS Pathogens, 2025).

B1: D24.1M01 with the germline CDRL2 (YGN) (antibody, V domains shown)
VH: QVTLRESGPALVKPTQTLTLTCTISGLSLTTSGVCVSWIRQPPGKALEWLALIDWDDDKYYSTSLRTRLTISKDISKNQVVLTMTNMDPVDTATFFCARTRCTSNWGYYFDSWGRGTRVTVSS
VL: QSVLTQPPSVSGAPGQRVTISCTGSASNIGAGYDVHWYQQVPGAAPKLLIYGNSNRPSGVPDRISGSKSGTSASLAISGLQAEDEADYYCQSYDDSLRGWVFGGGTKLTVL

How the values were obtained:
[1] = target: soluble HPV16 L1 capsomer (human papillomavirus type 16 (HPV16)); experiment: cryo-EM structure
[2] = target: HPV16 L1 (as in the HPV16L1 binding assays and on pseudovirus psV16) (Human papillomavirus type 16; L1 of …, UniProt J3SRV0); experiment: cell-based or functional assay
Sequence of HPV16 L1 (as in the HPV16L1 binding assays and on pseudovirus psV16) (P03101 whole entry): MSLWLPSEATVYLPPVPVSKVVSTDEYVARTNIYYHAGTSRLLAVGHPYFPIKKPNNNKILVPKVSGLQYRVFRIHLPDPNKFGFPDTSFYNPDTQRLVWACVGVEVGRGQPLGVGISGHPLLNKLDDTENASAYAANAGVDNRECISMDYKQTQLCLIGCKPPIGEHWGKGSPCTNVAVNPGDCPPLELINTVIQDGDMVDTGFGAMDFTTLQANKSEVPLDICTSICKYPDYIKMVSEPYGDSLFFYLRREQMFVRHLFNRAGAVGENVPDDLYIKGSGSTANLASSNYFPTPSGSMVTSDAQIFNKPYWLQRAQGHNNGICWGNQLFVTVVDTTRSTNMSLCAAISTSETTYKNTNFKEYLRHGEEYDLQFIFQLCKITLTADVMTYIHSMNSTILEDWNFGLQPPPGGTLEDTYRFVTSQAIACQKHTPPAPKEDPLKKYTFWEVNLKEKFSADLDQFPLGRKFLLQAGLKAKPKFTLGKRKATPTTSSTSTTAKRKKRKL

Molecule	stoichiometry N [1]	psV16 neutralization, fold increase of IC50 against the mature antibody [2]
soluble HPV16 L1 capsomer (complex)	5	–
B1	–	5.3 fold
